In patent publication US20090048117A1 (Harvard, published 2009):

T1: NFAT4 expressed from an expression construct
T1 sequence (Q12968 2-1075, species assumed, looked up): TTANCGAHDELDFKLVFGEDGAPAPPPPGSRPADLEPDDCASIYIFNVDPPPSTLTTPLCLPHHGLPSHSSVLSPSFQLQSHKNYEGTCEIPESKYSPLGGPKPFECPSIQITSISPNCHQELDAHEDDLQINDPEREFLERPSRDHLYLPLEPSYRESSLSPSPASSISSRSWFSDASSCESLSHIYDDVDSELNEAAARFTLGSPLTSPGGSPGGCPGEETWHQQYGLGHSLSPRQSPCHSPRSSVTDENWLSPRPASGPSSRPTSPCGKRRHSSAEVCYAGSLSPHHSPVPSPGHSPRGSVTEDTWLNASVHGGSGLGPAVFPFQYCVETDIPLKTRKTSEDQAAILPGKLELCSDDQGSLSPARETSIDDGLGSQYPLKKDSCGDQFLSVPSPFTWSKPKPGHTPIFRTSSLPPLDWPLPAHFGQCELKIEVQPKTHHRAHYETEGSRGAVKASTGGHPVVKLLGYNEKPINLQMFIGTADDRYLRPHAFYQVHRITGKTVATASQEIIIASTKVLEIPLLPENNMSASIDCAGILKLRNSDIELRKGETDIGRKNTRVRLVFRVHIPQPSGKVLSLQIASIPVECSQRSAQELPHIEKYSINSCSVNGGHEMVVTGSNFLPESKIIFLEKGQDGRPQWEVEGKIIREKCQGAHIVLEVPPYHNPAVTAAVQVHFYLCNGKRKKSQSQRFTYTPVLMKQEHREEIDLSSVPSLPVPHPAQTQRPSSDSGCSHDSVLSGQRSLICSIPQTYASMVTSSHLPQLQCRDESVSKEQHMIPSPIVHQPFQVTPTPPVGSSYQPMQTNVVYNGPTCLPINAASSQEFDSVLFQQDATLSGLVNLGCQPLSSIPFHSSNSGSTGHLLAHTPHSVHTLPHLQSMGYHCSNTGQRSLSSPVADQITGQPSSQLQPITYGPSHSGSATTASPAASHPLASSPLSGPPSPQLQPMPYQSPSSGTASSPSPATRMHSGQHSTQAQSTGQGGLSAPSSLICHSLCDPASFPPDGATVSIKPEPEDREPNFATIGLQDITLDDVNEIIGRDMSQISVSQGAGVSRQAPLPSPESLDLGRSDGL

T2: NFAT3 expressed from an expression construct
T2 sequence (Q14934 1-902, species assumed, looked up): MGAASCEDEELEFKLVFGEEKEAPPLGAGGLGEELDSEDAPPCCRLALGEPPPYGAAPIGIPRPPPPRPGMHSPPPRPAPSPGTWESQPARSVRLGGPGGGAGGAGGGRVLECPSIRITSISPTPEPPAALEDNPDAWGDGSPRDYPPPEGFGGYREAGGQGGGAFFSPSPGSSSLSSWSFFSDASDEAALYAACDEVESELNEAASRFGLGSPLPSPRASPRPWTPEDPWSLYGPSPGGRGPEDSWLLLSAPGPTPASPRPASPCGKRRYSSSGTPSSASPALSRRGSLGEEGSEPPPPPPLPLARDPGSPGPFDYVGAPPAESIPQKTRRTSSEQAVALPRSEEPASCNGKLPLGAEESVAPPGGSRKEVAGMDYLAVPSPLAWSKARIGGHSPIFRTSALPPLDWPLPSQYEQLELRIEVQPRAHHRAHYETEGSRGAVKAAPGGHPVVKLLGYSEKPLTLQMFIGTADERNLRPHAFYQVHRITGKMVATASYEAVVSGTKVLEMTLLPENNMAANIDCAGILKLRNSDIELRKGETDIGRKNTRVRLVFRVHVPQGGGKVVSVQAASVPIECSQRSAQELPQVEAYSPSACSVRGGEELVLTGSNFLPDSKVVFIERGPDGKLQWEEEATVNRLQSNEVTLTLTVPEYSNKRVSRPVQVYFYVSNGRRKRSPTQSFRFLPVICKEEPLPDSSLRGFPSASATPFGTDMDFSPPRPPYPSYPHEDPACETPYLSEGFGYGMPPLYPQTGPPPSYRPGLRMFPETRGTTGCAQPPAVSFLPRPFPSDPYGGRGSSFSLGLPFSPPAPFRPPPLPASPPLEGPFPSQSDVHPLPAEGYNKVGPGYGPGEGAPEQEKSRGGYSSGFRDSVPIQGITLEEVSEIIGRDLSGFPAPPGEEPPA

T3: NFATc expressed from an expression construct
T3 sequence (O95644 1-943, species assumed, looked up): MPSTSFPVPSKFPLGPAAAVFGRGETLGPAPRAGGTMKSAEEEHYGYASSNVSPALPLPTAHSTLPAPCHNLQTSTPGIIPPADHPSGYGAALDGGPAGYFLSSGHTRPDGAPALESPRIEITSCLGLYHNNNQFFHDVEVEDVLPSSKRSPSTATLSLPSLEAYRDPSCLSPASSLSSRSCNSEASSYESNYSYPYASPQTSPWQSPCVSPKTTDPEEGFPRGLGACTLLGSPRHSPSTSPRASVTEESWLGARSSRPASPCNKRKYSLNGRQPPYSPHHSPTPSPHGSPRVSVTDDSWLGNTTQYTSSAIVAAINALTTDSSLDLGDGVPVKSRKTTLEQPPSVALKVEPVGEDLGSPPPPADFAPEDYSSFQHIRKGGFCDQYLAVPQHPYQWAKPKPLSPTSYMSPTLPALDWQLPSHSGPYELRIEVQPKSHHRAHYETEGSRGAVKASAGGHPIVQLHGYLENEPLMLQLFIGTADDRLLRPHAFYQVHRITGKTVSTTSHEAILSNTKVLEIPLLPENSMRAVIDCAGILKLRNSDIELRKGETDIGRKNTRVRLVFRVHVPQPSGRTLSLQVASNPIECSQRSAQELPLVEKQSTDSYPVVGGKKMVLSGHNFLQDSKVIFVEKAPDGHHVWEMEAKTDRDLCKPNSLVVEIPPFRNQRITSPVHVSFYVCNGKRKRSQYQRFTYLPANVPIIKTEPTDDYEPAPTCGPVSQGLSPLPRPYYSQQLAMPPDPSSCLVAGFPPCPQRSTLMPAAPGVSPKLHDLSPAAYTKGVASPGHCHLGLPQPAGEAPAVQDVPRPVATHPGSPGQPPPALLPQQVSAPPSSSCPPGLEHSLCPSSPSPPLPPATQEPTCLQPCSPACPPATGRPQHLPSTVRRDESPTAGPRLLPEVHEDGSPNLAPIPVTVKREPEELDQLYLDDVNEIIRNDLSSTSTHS

T4: CARM1 of Jurkat cell lysates (human, UniProt Q86X55 2-608, limits assumed)
T4 sequence (looked up): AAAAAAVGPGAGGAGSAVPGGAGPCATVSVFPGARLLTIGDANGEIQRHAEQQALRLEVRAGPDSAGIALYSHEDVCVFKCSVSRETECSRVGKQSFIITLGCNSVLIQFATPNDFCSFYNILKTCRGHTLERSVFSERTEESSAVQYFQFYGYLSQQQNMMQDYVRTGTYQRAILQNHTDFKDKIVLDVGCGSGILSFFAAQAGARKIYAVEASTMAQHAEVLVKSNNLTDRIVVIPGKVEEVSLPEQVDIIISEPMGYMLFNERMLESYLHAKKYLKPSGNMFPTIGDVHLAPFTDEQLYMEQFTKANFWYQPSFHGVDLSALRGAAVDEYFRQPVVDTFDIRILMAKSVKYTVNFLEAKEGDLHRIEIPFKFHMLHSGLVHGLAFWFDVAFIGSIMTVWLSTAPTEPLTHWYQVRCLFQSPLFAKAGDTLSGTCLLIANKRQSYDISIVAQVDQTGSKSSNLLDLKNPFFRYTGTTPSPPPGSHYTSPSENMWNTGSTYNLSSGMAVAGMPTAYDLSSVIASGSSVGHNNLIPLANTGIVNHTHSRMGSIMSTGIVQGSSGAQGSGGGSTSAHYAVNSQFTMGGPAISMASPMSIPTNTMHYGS


Experiments:
[1] = target: T1, NFAT4 expressed from an expression …; test: cell-based or functional assay
[2] = target: T2, NFAT3 expressed from an expression …; test: cell-based or functional assay
[3] = target: T3, NFATc expressed from an expression …; test: cell-based or functional assay
[4] = target: T4, CARM1 of Jurkat cell lysates; test: GST pull-down of Jurkat cell lysates, immunoblot with a polyclonal CARM1 antibody
Description: FIGS. 16A-16C depict the interaction of NIP45 and PRMT. (A) Jurkat cell lysates were used in pulldown assays with 25 μg of recombinant GST, GST-NIP45, and GST-ΔN-NIP45. The presence of PRMT1 or CARM1 in pulldown samples was determined by immunoblotting with a monoclonal PRMT1 antibody and a polyclonal CARM1 antibody. PVDF membranes were reprobed with anti-GST antibodies to determine equal amount of recombinant proteins in pulldown samples. (B) Flag-NIP45or Flag-ΔN-NIP45 or vector control and HA-PRMT1 expression constructs were transfected in 293 cells. Lysates were immunoprecipitated with anti-Flag agarose and interaction with PRMT1 was determined by probing immunoblots with a monoclonal anti-HA antibody. Equal loading was assessed by probing with an anti-Flag antibody. (C) Lysates from unstimulated or 60 min PMA/ionomycin stimulated day 7 Th1 or Th2 differentiation cultures were immunoprecipitated with a monoclonal PRMT1 antibody or appropriate isotype control. Interaction with endogenous NIP45 was determined by immunoblotting PRMT1 antibody to determine equal loading.
Because PRMT1 methylates NIP45, their interaction was examined more closely. To determine specificity of interaction GST-NIP45 and GST-ΔN-NIP45 fusion proteins were used in pulldown assays of Jurkat cell lysates. […]

Row | transactivation of a 3X NFAT-CAT reporter in HepG2 cells [1] | transactivation of a 3X NFAT-CAT reporter in HepG2 cells [2] | transactivation of a 3X NFAT-CAT reporter in HepG2 cells [3] | Binder | binding result [4]
1 | 2 fold | 3 fold | 4 fold | NIP45 expressed from a NIP45 expression plasmid (other) MAEPLRGRGPRSRGGRGARRARGARGRCPRARQSPARLIPDTVLVDLVSDSDEEVLEVADPVEVPVARLPAPAKPEQDSDSDSEGAAEGPAGAPRTLVRRRRRRLLDPGEAPVVPVYSGKVQSSLNLIPDNSSLLKLCPSEPEDEADLTNSGSSPSEDDALPSGSPWRKKLRKKCEKEEKKMEEFPDQDISPLPQPSSRNKSRKHTEALQKLREVNKRLQDLRSCLSPKQHQSPALQSTDDEVVLVEGPVLPQSSRLFTLKIRCRADLVRLPVRMSEPLQNVVDHMANHLGVSPNRILLLFGESELSPTATPSTLKLGVADIIDCVVLASSSEATETSQELRLRVQGKEKHQMLEISLSPDSPLKVLMSHYEEAMGLSGHKLSFFFDGTKLSGKELPADLGLESGDLIEVWG | 
2 |  |  |  | GST-NIP45 fusion protein (bacterially expressed, full length NIP45) (other, also called recombinant GST-NIP45; recombinant full-length NIP45; not shown: glutathione-S-transferase (GST) fusion partner) MAEPLRGRGPRSRGGRGARRARGARGRCPRARQSPARLIPDTVLVDLVSDSDEEVLEVADPVEVPVARLPAPAKPEQDSDSDSEGAAEGPAGAPRTLVRRRRRRLLDPGEAPVVPVYSGKVQSSLNLIPDNSSLLKLCPSEPEDEADLTNSGSSPSEDDALPSGSPWRKKLRKKCEKEEKKMEEFPDQDISPLPQPSSRNKSRKHTEALQKLREVNKRLQDLRSCLSPKQHQSPALQSTDDEVVLVEGPVLPQSSRLFTLKIRCRADLVRLPVRMSEPLQNVVDHMANHLGVSPNRILLLFGESELSPTATPSTLKLGVADIIDCVVLASSSEATETSQELRLRVQGKEKHQMLEISLSPDSPLKVLMSHYEEAMGLSGHKLSFFFDGTKLSGKELPADLGLESGDLIEVWG | no binding (tested: 25 µg of recombinant protein)
